Values joined by “and” are separate entries in the source; they are usually repeats but may differ in a detail not shown here. Equal values may be shown once. Some results are limits rather than exact numbers.

Experimental findings from paper PMC5603524, “An alternate mode of oligomerization for E. coli SecA” (Scientific Reports, 2017) are described below.

One series addresses SecA-N68∆C (E. coli) (UniProt P10408). The experiment in a line: AUC; sedimentation velocity, 20 °C, 50 mM Tris-HCl pH 7.5, 100 mM KCl, 2 mM EDTA, 5 mM MgCl2, 5 mM TCEP-HCl; SedFit analysis at a range of concentrations.
For another series, the target named is SecA-N68∆N (E. coli) (UniProt P10408). Described as above.
Series [1] deals with the molecule itself. The description is as above.
Series [2] deals with the molecule itself. The experiment in a line: AUC; sedimentation equilibrium, 20 °C, 50 mM Tris-HCl pH 7.5, 100 mM KCl, 2 mM EDTA, 5 mM MgCl2; global fit of nine curves at three rotor speeds; dimer to monomers.
Series [3] concerns the molecule itself. The experiment in a line: SEC; analytical gel filtration, Superdex 200 HR 10/30, 50 mM Tris-HCl pH 7.5, 100 mM KCl, 1 mM EDTA, 5 mM MgCl2, 5 mM β-mercaptoethanol, room temperature; H6-SecA-N68 applied at up to 4 mg/mL, SecA-N68∆NC at 10 mg/mL. In general terms: Size exclusion chromatography separates by hydrodynamic size, large species first.

Usually stoichiometry N stands for a count of units in the complex or per binding partner. With “SecA-N68∆C (from UniProt P10408 1-590) (domain or fragment)”, in the series with SecA-N68∆C (E. coli), the stoichiometry N was 2.
In the series with SecA-N68∆N (E. coli), “SecA-N68∆N (from UniProt P10408 15-610) (domain or fragment)” registered a relative amount of the dimer at 4 mg/mL of 50% and a stoichiometry N of 2.

B1: SecA-N95ΔN (domain or fragment, E. coli, UniProt P10408 15-835, looked up)
chain: DRTLRRMRKVVNIINAMEPEMEKLSDEELKGKTAEFRARLEKGEVLENLIPEAFAVVREASKRVFGMRHFDVQLLGGMVLNERCIAEMRTGEGKTLTATLPAYLNALTGKGVHVVTVNDYLAQRDAENNRPLFEFLGLTVGINLPGMPAPAKREAYAADITYGTNNEYGFDYLRDNMAFSPEERVQRKLHYALVDEVDSILIDEARTPLIISGPAEDSSEMYKRVNKIIPHLIRQEKEDSETFQGEGHFSVDEKSRQVNLTERGLVLIEELLVKEGIMDEGESLYSPANIMLMHHVTAALRAHALFTRDVDYIVKDGEVIIVDEHTGRTMQGRRWSDGLHQAVEAKEGVQIQNENQTLASITFQNYFRLYEKLAGMTGTADTEAFEFSSIYKLDTVVVPTNRPMIRKDLPDLVYMTEAEKIQAIIEDIKERTAKGQPVLVGTISIEKSELVSNELTKAGIKHNVLNAKFHANEAAIVAQAGYPAAVTIATNMAGRGTDIVLGGSWQAEVAALENPTAEQIEKIKADWQVRHDAVLEAGGLHIIGTERHESRRIDNQLRGRSGRQGDAGSSRFYLSMEDALMRIFASDRVSGMMRKLGMKPGEAIEHPWVTKAIANAQRKVESRNFDIRKQLLEYDDVANDQRRAIYSQRNELLDVSDVSETINSIREDVFKATIDAYIPPQSLEEMWDIPGLQERLKNDFDLDLPIAEWLDKEPELHEETLRERILAQSIEVYQRKEEVVGAEMMRHFEKGVMLQTLDSLWKEHLAAMDYLRQGIHLRGYAQKDPKQEYKRESFSMFAAMLESLKYEVISTLSKVQVRMPE
notes: SecA, E. coli, first 14 N-terminal residues removed, truncated at residue 835; also called SecA-N95∆N; SecA-N95ΔN14
One may read the Kd as the equilibrium constant for the complex coming apart. Read a low Kd as tighter binding. With B1, in series [1], the “stoichiometry N” value was found to be 2. In addition, the Kd in series [2] was 24.5 µM.

B2: H6-SecA-N68 (domain or fragment, E. coli, UniProt P10408 6-610, looked up)
chain: LTKVFGSRNDRTLRRMRKVVNIINAMEPEMEKLSDEELKGKTAEFRARLEKGEVLENLIPEAFAVVREASKRVFGMRHFDVQLLGGMVLNERCIAEMRTGEGKTLTATLPAYLNALTGKGVHVVTVNDYLAQRDAENNRPLFEFLGLTVGINLPGMPAPAKREAYAADITYGTNNEYGFDYLRDNMAFSPEERVQRKLHYALVDEVDSILIDEARTPLIISGPAEDSSEMYKRVNKIIPHLIRQEKEDSETFQGEGHFSVDEKSRQVNLTERGLVLIEELLVKEGIMDEGESLYSPANIMLMHHVTAALRAHALFTRDVDYIVKDGEVIIVDEHTGRTMQGRRWSDGLHQAVEAKEGVQIQNENQTLASITFQNYFRLYEKLAGMTGTADTEAFEFSSIYKLDTVVVPTNRPMIRKDLPDLVYMTEAEKIQAIIEDIKERTAKGQPVLVGTISIEKSELVSNELTKAGIKHNVLNAKFHANEAAIVAQAGYPAAVTIATNMAGRGTDIVLGGSWQAEVAALENPTAEQIEKIKADWQVRHDAVLEAGGLHIIGTERHESRRIDNQLRGRSGRQGDAGSSRFYLSMEDALMRIFASDRVSGMMRKL
notes: SecA, E. coli, residues 6 to 610; lacks the C-terminal helical domains; The tag MHHHHHH stands in place of the first residues of SecA and was not removed; also called His6-SecA-N68; N-terminal histidine-tagged version of SecA-N68; not shown: His6 (MHHHHHH), N-terminal, kept
Take B2: in series [3], the binding result is recorded as “binds”.

B3: SecA-N68 with a wild-type N-terminus (domain or fragment, E. coli, UniProt P10408 1-610, looked up)
chain: MLIKLLTKVFGSRNDRTLRRMRKVVNIINAMEPEMEKLSDEELKGKTAEFRARLEKGEVLENLIPEAFAVVREASKRVFGMRHFDVQLLGGMVLNERCIAEMRTGEGKTLTATLPAYLNALTGKGVHVVTVNDYLAQRDAENNRPLFEFLGLTVGINLPGMPAPAKREAYAADITYGTNNEYGFDYLRDNMAFSPEERVQRKLHYALVDEVDSILIDEARTPLIISGPAEDSSEMYKRVNKIIPHLIRQEKEDSETFQGEGHFSVDEKSRQVNLTERGLVLIEELLVKEGIMDEGESLYSPANIMLMHHVTAALRAHALFTRDVDYIVKDGEVIIVDEHTGRTMQGRRWSDGLHQAVEAKEGVQIQNENQTLASITFQNYFRLYEKLAGMTGTADTEAFEFSSIYKLDTVVVPTNRPMIRKDLPDLVYMTEAEKIQAIIEDIKERTAKGQPVLVGTISIEKSELVSNELTKAGIKHNVLNAKFHANEAAIVAQAGYPAAVTIATNMAGRGTDIVLGGSWQAEVAALENPTAEQIEKIKADWQVRHDAVLEAGGLHIIGTERHESRRIDNQLRGRSGRQGDAGSSRFYLSMEDALMRIFASDRVSGMMRKL
notes: NBD1, PPXD and NBD2 with the unstructured N- and C-termini
For B3, in series [1], the “stoichiometry N” value is 2 and 4.

B4: SecA-N95 (domain or fragment, E. coli, UniProt P10408 1-835, looked up)
chain: MLIKLLTKVFGSRNDRTLRRMRKVVNIINAMEPEMEKLSDEELKGKTAEFRARLEKGEVLENLIPEAFAVVREASKRVFGMRHFDVQLLGGMVLNERCIAEMRTGEGKTLTATLPAYLNALTGKGVHVVTVNDYLAQRDAENNRPLFEFLGLTVGINLPGMPAPAKREAYAADITYGTNNEYGFDYLRDNMAFSPEERVQRKLHYALVDEVDSILIDEARTPLIISGPAEDSSEMYKRVNKIIPHLIRQEKEDSETFQGEGHFSVDEKSRQVNLTERGLVLIEELLVKEGIMDEGESLYSPANIMLMHHVTAALRAHALFTRDVDYIVKDGEVIIVDEHTGRTMQGRRWSDGLHQAVEAKEGVQIQNENQTLASITFQNYFRLYEKLAGMTGTADTEAFEFSSIYKLDTVVVPTNRPMIRKDLPDLVYMTEAEKIQAIIEDIKERTAKGQPVLVGTISIEKSELVSNELTKAGIKHNVLNAKFHANEAAIVAQAGYPAAVTIATNMAGRGTDIVLGGSWQAEVAALENPTAEQIEKIKADWQVRHDAVLEAGGLHIIGTERHESRRIDNQLRGRSGRQGDAGSSRFYLSMEDALMRIFASDRVSGMMRKLGMKPGEAIEHPWVTKAIANAQRKVESRNFDIRKQLLEYDDVANDQRRAIYSQRNELLDVSDVSETINSIREDVFKATIDAYIPPQSLEEMWDIPGLQERLKNDFDLDLPIAEWLDKEPELHEETLRERILAQSIEVYQRKEEVVGAEMMRHFEKGVMLQTLDSLWKEHLAAMDYLRQGIHLRGYAQKDPKQEYKRESFSMFAAMLESLKYEVISTLSKVQVRMPE
notes: SecA, E. coli, truncated at residue 835 (stop codon after residue 835); source: E. coli BL21(DE3), purified (ammonium sulfate, PhenylSepharose, Cibacron Blue Sepharose, MonoQ)
As to B4, the “stoichiometry N” value in series [1] is 2. Besides, in series [2], the dissociation constant (Kd) was below 1 µM.
